Test results published in the supplement of paper PMC7125110.
± gives the standard error. Fewer inactive variants are shown than the library holds.

B1: glmS ribozyme (parent)
chain: AUAAAAGCGCCAGAACUACAGAAAUGUAGUUGACGAGGAGGAGGUUUAUCGAAUUUUCGGCGGAUGCCUCCAAA

Assays:
Conditions in all cases: with glucosamine-6-phosphate
[1] = variants of: B1; assay: self-cleavage kobs at 640 uM GlcN6P; higher = faster cleavage; RNA array
In short: (§1)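 Weighted Michaelis–Menten fits across concentrations supplied kcat and KM, based on kobs from one- or two-exponential decay fits to normalised per-tile medians. The data came from barcoded ribozyme variants transcribed in situ by E. coli RNA polymerase on sequenced MiSeq chips and tracked at 37 °C by a hybridised Cy3 probe. Glucosamine-6-phosphate (40 μM to 10 mM) in HEPES/KCl/Mg(OAc)2 buffer was flowed in.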

[2] = variants of: B1; assay: self-cleavage kobs at 2500 uM GlcN6P; higher = faster cleavage; RNA array
In short: as §1

[3] = variants of: B1; assay: self-cleavage kobs at 10000 uM GlcN6P; higher = faster cleavage; RNA array
In short: as §1

Variant	self-cleavage kobs at 640 uM GlcN6P [1]	self-cleavage kobs at 2500 uM GlcN6P [2]	self-cleavage kobs at 10000 uM GlcN6P [3]
G9U U54C C68U	< 1e-05 s⁻¹		
G7A A33C G66C	< 1e-05 s⁻¹		
C8U U30A C71U	< 1e-05 s⁻¹		
G7C A12C G32A C50A G60U	< 1e-05 s⁻¹		
A6U G43U C61U C71U	< 1e-05 s⁻¹	< 1e-05 s⁻¹	
C10A G41C C58U	< 1e-05 s⁻¹		
A6U G35U G43U	< 1e-05 s⁻¹	< 1e-05 s⁻¹	
C8U U55G G60U	< 1e-05 s⁻¹		
C8A C50G C61A U69G	7.27e-05 ± 2.2e-05 s⁻¹	6.55e-05 ± 2.7e-05 s⁻¹	
A6U C16U G43U U65G	< 1e-05 s⁻¹		
C10G U30C G38U	< 1e-05 s⁻¹		
C8U U31G G43A	< 1e-05 s⁻¹		
G9A C61G C68A	< 1e-05 s⁻¹	< 1e-05 s⁻¹	
C8A C34A G59U A64G	< 1e-05 s⁻¹	< 1e-05 s⁻¹	
G7U G37A A39C	< 1e-05 s⁻¹	< 1e-05 s⁻¹	
C10U A33U A36U G43U A53G C71U	< 1e-05 s⁻¹	< 1e-05 s⁻¹	
A6U C8A C50U	< 1e-05 s⁻¹		
G7U C71A	< 1e-05 s⁻¹		< 1e-05 s⁻¹
G9A G38U U57A	< 1e-05 s⁻¹		
G7A G32A U49G	< 1e-05 s⁻¹		
C8U G32A C34G	< 1e-05 s⁻¹	< 1e-05 s⁻¹	
G9A C16U U30G G38U	< 1e-05 s⁻¹	< 1e-05 s⁻¹	
G9A G13A A48G	< 1e-05 s⁻¹	< 1e-05 s⁻¹	
G7A C8G A14U U65G	< 1e-05 s⁻¹	< 1e-05 s⁻¹	< 1e-05 s⁻¹
G7A A33G C68G	0.00031 ± 0.00013 s⁻¹	6.13e-05 ± 2.5e-05 s⁻¹	
G9A G13C A64G C70U	< 1e-05 s⁻¹		

Variant	self-cleavage kobs at 640 uM GlcN6P [1]	self-cleavage kobs at 2500 uM GlcN6P [2]	self-cleavage kobs at 10000 uM GlcN6P [3]
C8G G40C	< 1e-05 s⁻¹	< 1e-05 s⁻¹	< 1e-05 s⁻¹
G7A G13C A14G U69G	< 1e-05 s⁻¹	< 1e-05 s⁻¹	
C10G A14C G44C G51C	< 1e-05 s⁻¹		
A6U U45C C71U	< 1e-05 s⁻¹	< 1e-05 s⁻¹	
C10G A36G U45G U49A G66A C71U	< 1e-05 s⁻¹	< 1e-05 s⁻¹	
C8G U55G	< 1e-05 s⁻¹	< 1e-05 s⁻¹	
C10G C34G G41U U45A	< 1e-05 s⁻¹	< 1e-05 s⁻¹	
A6U C11A A33G U47C U49A G51U A53U G59U	< 1e-05 s⁻¹	< 1e-05 s⁻¹	
A6U C34A G44U C67U	< 1e-05 s⁻¹	< 1e-05 s⁻¹	
G7U A15U G44C	< 1e-05 s⁻¹	< 1e-05 s⁻¹	
G7U A12G C16U	< 1e-05 s⁻¹	< 1e-05 s⁻¹	
G7A A39C U56G C68G	< 1e-05 s⁻¹	< 1e-05 s⁻¹	
G9U A33C G41U G62C	< 1e-05 s⁻¹	< 1e-05 s⁻¹	
C8A G40A C68U	< 1e-05 s⁻¹		< 1e-05 s⁻¹
A6U C34U G40C G59C	< 1e-05 s⁻¹		
C10G G66U C68G C71A	8.79e-05 ± 3.1e-05 s⁻¹		
C10U C11G G29U U30G G37C	< 1e-05 s⁻¹		
G9A A14U	< 1e-05 s⁻¹	< 1e-05 s⁻¹	
G9U U47G C68A	< 1e-05 s⁻¹		
C8U G32C U45C	< 1e-05 s⁻¹	< 1e-05 s⁻¹	
C10G C67G C68U	0.0001 ± 4.2e-05 s⁻¹	7.32e-05 ± 3e-05 s⁻¹	2.77e-05 ± 1.3e-05 s⁻¹
G9U A36G U45C A48C G60U C68G	< 1e-05 s⁻¹	< 1e-05 s⁻¹	< 1e-05 s⁻¹
G9C G29A G62A	< 1e-05 s⁻¹		
C8G A12C C71A	< 1e-05 s⁻¹	< 1e-05 s⁻¹	
C10G C68G C70U	9.88e-05 ± 3.1e-05 s⁻¹		
C10G A33U G35C G41U U54C C70U	< 1e-05 s⁻¹	< 1e-05 s⁻¹	

Variant	self-cleavage kobs at 640 uM GlcN6P [1]	self-cleavage kobs at 2500 uM GlcN6P [2]	self-cleavage kobs at 10000 uM GlcN6P [3]
G7C C11G G41A	< 1e-05 s⁻¹	< 1e-05 s⁻¹	
A6U G13U G29U C70G	4.98e-05 ± 2.3e-05 s⁻¹		
C8U A14G G32U A33C	< 1e-05 s⁻¹		
C8G G13U A33U U57G	< 1e-05 s⁻¹	< 1e-05 s⁻¹	
C8A A12U A15U C70A	< 1e-05 s⁻¹		
G9U U30G U31C A39C A64G	< 1e-05 s⁻¹	< 1e-05 s⁻¹	
C10U C34G U46A A48U U69A	< 1e-05 s⁻¹	< 1e-05 s⁻¹	< 1e-05 s⁻¹
G9U G13U G29U G37C	< 1e-05 s⁻¹	< 1e-05 s⁻¹	
G7U G43U U45A C58A	< 1e-05 s⁻¹	< 1e-05 s⁻¹	
C10A C58U G63A A64U	< 1e-05 s⁻¹	< 1e-05 s⁻¹	
C8U U46G G51U G66U C70G C71U	< 1e-05 s⁻¹		
G7U G9U G43U	< 1e-05 s⁻¹	< 1e-05 s⁻¹	
G9A C11U U54A G59A A64G	< 1e-05 s⁻¹	< 1e-05 s⁻¹	
C10U A33U U56C C68A	< 1e-05 s⁻¹		
C8G U30A G43U	< 1e-05 s⁻¹		
G7U G32C C34U U55C	< 1e-05 s⁻¹	< 1e-05 s⁻¹	
C8U A33C G35C U56G U65C	< 1e-05 s⁻¹	< 1e-05 s⁻¹	
G7U C11A C50G C70U	0.000451 ± 0.00011 s⁻¹	0.000157 ± 3.1e-05 s⁻¹	0.00016 ± 3.1e-05 s⁻¹
G9A G29U G41A U45A U47G C50U C70U	< 1e-05 s⁻¹		
G9U A15G U55A	< 1e-05 s⁻¹		
G9C C67A C71U	< 1e-05 s⁻¹	< 1e-05 s⁻¹	
G9U A36C G43U	< 1e-05 s⁻¹	< 1e-05 s⁻¹	
C8U G37C A52G	< 1e-05 s⁻¹		
C10A G38A G51U C70G	5.43e-05 ± 1.7e-05 s⁻¹		
C8U G43A U54C	< 1e-05 s⁻¹		
G9C A42U U47A U57G	< 1e-05 s⁻¹		

Variant	self-cleavage kobs at 640 uM GlcN6P [1]	self-cleavage kobs at 2500 uM GlcN6P [2]	self-cleavage kobs at 10000 uM GlcN6P [3]
C8A C16U C50U U56G	< 1e-05 s⁻¹		
G9U G40C C50G	< 1e-05 s⁻¹	< 1e-05 s⁻¹	
C10A G35C U55C	< 1e-05 s⁻¹	< 1e-05 s⁻¹	
C8U A12G G66U	< 1e-05 s⁻¹		
C8G U31C G38A	< 1e-05 s⁻¹		< 1e-05 s⁻¹
C8U U31C U69A	0.00179 ± 0.00081 s⁻¹		
G9U U30G C68U	< 1e-05 s⁻¹		
C10U A14G U69A	4.59e-05 ± 2.2e-05 s⁻¹	4.32e-05 ± 1.9e-05 s⁻¹	
G9U A12C G51C C67U	< 1e-05 s⁻¹	< 1e-05 s⁻¹	
G9U G44C G63U	< 1e-05 s⁻¹	< 1e-05 s⁻¹	
G7U C10G G13C G44A U69G	< 1e-05 s⁻¹		
C10G G38U U49G C58G A64C U65A C67U C68U	0.000308 ± 8.3e-05 s⁻¹		
G7A A39U A53C A64C	< 1e-05 s⁻¹		
C10G A48U A52U	< 1e-05 s⁻¹		
C8U G40U G59U C68U	< 1e-05 s⁻¹		
G7U C58G C61G	0.000789 ± 0.00019 s⁻¹		
C10A G44A U47C	< 1e-05 s⁻¹		
G9A G29C G32A G38U	< 1e-05 s⁻¹		
C8A A53U G60U	< 1e-05 s⁻¹	< 1e-05 s⁻¹	
G9C A53G U65C	< 1e-05 s⁻¹	< 1e-05 s⁻¹	
G9U A14U C16A G32U A36G	< 1e-05 s⁻¹		
G7A A33C A39U	< 1e-05 s⁻¹		
C10G C16U A52U U54C G66A	< 1e-05 s⁻¹		
G7C G43U A64U	< 1e-05 s⁻¹		
C10G A15C C50A	< 1e-05 s⁻¹		
C8G A36G A42U C67A	< 1e-05 s⁻¹	< 1e-05 s⁻¹	

Variant	self-cleavage kobs at 640 uM GlcN6P [1]	self-cleavage kobs at 2500 uM GlcN6P [2]	self-cleavage kobs at 10000 uM GlcN6P [3]
C8G A33C U45C U56C G59C	< 1e-05 s⁻¹	< 1e-05 s⁻¹	
G7C G9C G44A	< 1e-05 s⁻¹		< 1e-05 s⁻¹
G9U A36U G40U G60A	< 1e-05 s⁻¹		
G7C G9U A39G U45A G59A G60A C67U C68U	< 1e-05 s⁻¹		
C8G G32C G38C U54G	< 1e-05 s⁻¹	< 1e-05 s⁻¹	< 1e-05 s⁻¹
C10U C16U C71G	6.17e-05 ± 2.9e-05 s⁻¹		
C8A C10A U30A C61G	< 1e-05 s⁻¹	< 1e-05 s⁻¹	
G7C G26U G29U U57C A64U U65C	< 1e-05 s⁻¹		
C10G A33G	< 1e-05 s⁻¹		< 1e-05 s⁻¹
G7U A39G A48U	< 1e-05 s⁻¹		
G9A C10G C58U	< 1e-05 s⁻¹	< 1e-05 s⁻¹	
A6U G29C A48U	< 1e-05 s⁻¹		
C8G U30C A64C	< 1e-05 s⁻¹	< 1e-05 s⁻¹	< 1e-05 s⁻¹
G9A G66U	< 1e-05 s⁻¹	< 1e-05 s⁻¹	
G9U G40U U47G U65A	< 1e-05 s⁻¹	< 1e-05 s⁻¹	
G9A A36G A39C C70G	< 1e-05 s⁻¹	< 1e-05 s⁻¹	
C10A G13A C50A C58U C71G	0.000823 ± 0.00036 s⁻¹	7.64e-05 ± 3.6e-05 s⁻¹	
A6U G29A G44U	< 1e-05 s⁻¹		
C8A A12G G32A	< 1e-05 s⁻¹		< 1e-05 s⁻¹
G9A U47A C70U	< 1e-05 s⁻¹		
C8U G35A U49A	< 1e-05 s⁻¹		
A6U C16U C61U C71U	< 1e-05 s⁻¹	< 1e-05 s⁻¹	
C10A G51A	< 1e-05 s⁻¹		< 1e-05 s⁻¹
C8U A48G A64G	< 1e-05 s⁻¹		
C10U A36G C58U	< 1e-05 s⁻¹		
G9A U45A C50G C68U	< 1e-05 s⁻¹		< 1e-05 s⁻¹
